Assay results: publication PMC12957798 (2025)

B1: SC17-2 (peptide)
chain: SFMPLSIPIMCKMLSKC
modifications: biotinylated EGFR
B2: SC17-2 (peptide)
chain: SFMPLSIPIMCKMLSKC

Experiments:
EGFR [1] = target: T1, EGFR (Homo sapiens, UniProt P00533); assay: BLI
EGFR [2] = target: T1, EGFR; assay: SPR

Binder | Kd (EGFR [1]) [nM] | Kd (EGFR [2]) [nM]
B1 | 229 | 
B2 |  | 148
